Reference: publication PMC7145599, “Cooperative DNA binding by proteins through DNA shape complementarity” (Nucleic Acids Research, 2019)

Tests used:
[1] = tested on: Xis-Arg39Ala (phage lambda); assay: EMSA; details: no Fis; cooperative; EMSA: 20 mM HEPES pH 7.5, 0.1 M NaCl, 5% glycerol, 500 ug/ml BSA, 1 mM EDTA, 1 mM DTT, 25 C; competitor 50 ug/ml poly dI/dC (34 bp), 5 ug/ml poly dI/dC (Fig 2) …
[2] = tested on: Xis-Arg39Lys (phage lambda); assay: EMSA; details: no Fis; stepwise, non-cooperative; EMSA: 20 mM HEPES pH 7.5, 0.1 M NaCl, 5% glycerol, 500 ug/ml BSA, 1 mM EDTA, 1 mM DTT, 25 C; competitor 50 ug/ml poly dI/dC (34 bp), 5 ug/ml poly dI/dC (Fig 2) …
[3] = molecular target: Fis;Xis-wt (phage lambda) (UniProt P0A6R3); assay: EMSA; details: apparent Kd of Xis for Fis-bound DNA; 4 nM Fis; EMSA: 20 mM HEPES pH 7.5, 0.1 M NaCl, 5% glycerol, 500 ug/ml BSA, 1 mM EDTA, 1 mM DTT, 25 C; competitor 50 ug/ml poly dI/dC (34 bp), 5 ug/ml poly dI/dC (Fig 2) …
Fis;Xis1-55 [4] = molecular target: T1, Fis;Xis1-55 (Escherichia coli?;phage lambda, UniProt P0A6R3;P03699 1-98;1-55, |C28S); assay: X-ray crystallography; FX1-2-1Xis, 3.60 A; Xis at X2; EMSA: 20 mM HEPES pH 7.5, 0.1 M NaCl, 5% glycerol, 500 ug/ml BSA, 1 mM EDTA, 1 mM DTT, 25 C; competitor 50 ug/ml poly dI/dC (34 bp), 5 ug/ml poly dI/dC (Fig 2); details: protein: recombinant;recombinant; tags: ;; chain copies: 2;1
[5] = molecular target: Fis;Xis1-55 (two protomers) (Escherichia coli?;phage lambda, UniProt P0A6R3;P03699 1-98;1-55, |C28S); assay: X-ray crystallography; FX1-2-2Xis, 3.30 A; second Xis over X1 in reverse orientation; EMSA: 20 mM HEPES pH 7.5, 0.1 M NaCl, 5% glycerol, 500 ug/ml BSA, 1 mM EDTA, 1 mM DTT, 25 C; competitor 50 ug/ml poly dI/dC (34 bp), 5 ug/ml poly dI/dC (Fig 2); details: protein: recombinant;recombinant; tags: ;; chain copies: 2;2
[6] = molecular target: the molecule itself; assay: crystal structure; Fis dimer and Xis^1-55 co-bound to 27 bp DNA duplexes (FX2, FX1-2-1Xis, FX1-2-2Xis); complexes formed in 20 mM Tris-HCl pH 7.5, 200 mM Na acetate; crystals grown at 4°C in 0.1 M HEPES pH 7-7.5, 15% PEG4000
Fis;Xis1-55 [7] = molecular target: T1, Fis;Xis1-55; assay: X-ray crystallography; FX2, 2.7 A; EMSA: 20 mM HEPES pH 7.5, 0.1 M NaCl, 5% glycerol, 500 ug/ml BSA, 1 mM EDTA, 1 mM DTT, 25 C; competitor 50 ug/ml poly dI/dC (34 bp), 5 ug/ml poly dI/dC (Fig 2); details: protein: recombinant;recombinant; tags: ;; chain copies: 2;1
Fis;Xis1-55 [8] = molecular target: T1, Fis;Xis1-55; assay: X-ray crystallography (Br anomalous); EMSA: 20 mM HEPES pH 7.5, 0.1 M NaCl, 5% glycerol, 500 ug/ml BSA, 1 mM EDTA, 1 mM DTT, 25 C; competitor 50 ug/ml poly dI/dC (34 bp), 5 ug/ml poly dI/dC (Fig 2); details: protein: recombinant;recombinant; tags: ;; chain copies: 2;1

attR 263 bp
binding signal (fold lower affinity than Xis-wt) [1]: 15
binding signal (fold lower affinity than Xis-wt) [2]: 10

F-X2 34 bp (CA, native)
Kd [3]: 400 nM

B1: FX1-2 27 bp (dsDNA)
DNA 1: AATGTTGTGTTTTTAACAGACTACATT
DNA 2: AATGTAGTCTGTTAAAAACACAACATT
binding result (Fis;Xis1-55 [4]): binds
binding result [5]: binds

B2: Escherichia coli Fis protein (natural protein)
chain: MFEQRVNSDVLTVSTVNSQDQVTQKPLRDSVKQALKNYFAQLNGQDVNDLYELVLAEVEQPLLDMVMQYTRGNQTRAALMMGINRGTLRKKLKKYGMN
notes: Fis, bacterial nucleoid / DNA architectural protein of Escherichia coli; the N-terminal beta-hairpin arms are not resolved in the crystals; also called Fis dimer
stoichiometry N [6]: 2

B3: Xis^1-55 (phage lambda Xis residues 1-55 with a cysteine to serine substitution at residue 28) (domain or fragment, UniProt P03699 1-55, looked up)
chain: MYLTLQEWNARQRRPRSLETVRRWVRESRIFPPPVKDGREYLFHESAVKVDLNRP
notes: Used for crystallography; The full-length Cys28Ser xis gene (pRJ2178, pET11a) was used for the gel shift assays on DNA, which are not written here; also called Xis protomer; Xis monomer
binding result [6]: binds

B4: FX2 27 bp (dsDNA)
DNA 1: AATTTTGCATAAAAAACAGACTACATT
DNA 2: AATGTAGTCTGTTTTTTATGCAAAATT
binding result (Fis;Xis1-55 [7]): binds

B5: FX1-2 27 bp 5-BrdU (dsDNA)
DNA 1: AATGTTGTGTTTTTAACAGACTACATT
DNA 2: AATGTAGTCTGTTAAAAACACAACATT
modifications: 5-bromodeoxyuridine at asterisked T positions (incl. nt 8 and 12 from the central T)
binding result (Fis;Xis1-55 [8]): binds
